Experimental data published in a protein production outcome set (Wang et al. 2014).

Assay: label from the status in PepcDB records

Sequence	protein production
MKFVKASLYLSIALAISACGEQVSVESHLENAKSYLNENKVNESIIELKNAIRADTKNAEARFLLGQIYLSLGDGLAAVKELERAQSLKYPDNKVLPLLARAYILTDSDSDVIALSTAAKGLAAEERSQYLAYQTLAALRSEQPDLAKQSVELAQSIAQQSLYSMLASAYLQLSENKYDEVKTLISRILTIEAKQVDALMLQGQVAMVTEEYQLAVDSFKQYMELQPRFSMVELLLANALLKAGHDEEAEQHADAILAKVNNQPFANYIKAMVRFQAKDFDKASEHAEAALSADFNQFNLKLVAGASAFYLKNWQQSYHHLSAIVKYLPNDHQARRMLAVTQLELGLIDEISATIGDFDGNDEVNSQFLSSLSYKLLELGATTEAKKLLAQNGQNSSKNAAHNARQGILKLMMNDPSGIENLQDAVKLNPELIEAELAIAFSALQRGDIAKANAIAEKWQKQYPDKASSFNLLASIAIKEGKYDKAEQALKKSLSLEQDNFFALTEQLRIARKQENIPLSKQRADYLITIAPTNNKVLRQYFGVYRNEMALAKLTAAYELDKTDINKAILLSEAMVSLGQLKQAESILVSIADTAKLPKRYWQLLLLTYKKQKNFEKIRPTLEKWLKENPYHIEAVVLLTDFYASQRNYERALTVIKRGLDNHKDNLVLQLVQMQLLLNNKQISPAKSLYKIIENKNINDALKQGLLGRIYLLEEDYVQALPKLTVFYQTYPSSQNAIYLAGAHLGNKDNAKAVKVLEHYLTIDANNNRIETMLAGIYLENDSDKAIAVYDDVVKKQPKNVVAHNNLAWLYLEQDNISKALEHAEKALELAPQIANIVDTYAKVLLGSGDKRAALQYASKASEIAKGKDVDIQLNYVEALIANNRINEAKDLLAKVATATDEQKNKKSKLLAQL	failed
MKGKILDYSVQTNTAIIRTEDQKHYSFLGSAWREWIVPMPGMHVYFELDAQGEVTEVFIDVPEEDTPIAKPILTPVKAFITAPLMVDMQDKQHHTMLEKEAHYCMIDWVIKCFKNALDFKGRARRQEFWSFQFFYTVLGVGMLAFGHFLDLGHTLFIVSSIFMLLPALAVSVRRLHDINRSGWLLLINLVPIVGVLIVIFFFMTEEGDSRANAFGPPSK	failed
MKGLKALILVILVLGLVVGSVAAAPEKKVEQVRNVEKNYGLLTPGLFRKIQKLNPNEEISTVIVFENHREKEIAVRVLELMGAKVRYVYHIIPAIAADLKVRDLLVISGLTGGKAKLSGVRFIQEDYKVTVSAELEGLDESAAQVMATYVWNLGYDGSGITIGIIDTGIDASHPDLQGKVIGWVDFVNGRSYPYDDHGHGTHVASIAAGTGAASNGKYKGMAPGAKLAGIKVLGADGSGSISTIIKGVEWAVDNKDKYGIKVINLSLGSSQSSDGTDALSQAVNAAWDAGLVVVVAAGNSGPNKYTIGSPAAASKVITVGAVDKYDVITSFSSRGPTADGRLKPEVVAPGNWIIAARASGTSMGQPINDYYTAAPGTSMATPHVAGIAALLLQAHPSWTPDKVKTALIETADIVKPDEIADIAYGAGRVNAYKAINYDNYAKLVFTGYVANKGSQTHQFVISGASFVTATLYWDNANSDLDLYLYDPNGNQVDYSYTAYYGFEKVGYYNPTDGTWTIKVVSYSGSANYQVDVVSDGSLSQPGSSPSPQPEPTVDAKTFQGSVHYYYDRSDTFTMTVNSGATKITGDLVFDTSYHDLDLYLYDPNQKLVDRSESSNSYEHVEYLNPAPGTWYFLVYAYYTYGWAYYELTAKVYYG	failed
MKGREMKIVEFMKDKMVYIVFTLIFSSIYAGVHHRSIFLSLKVTLPIALFMMLFQPMVFMDIKKAFTTRTRVKTKYLILLTFFYTLLFPVLTWIFLKFWLRMMPNTEPQLLAGMVLIGLAPLPSSSPAFTNLAGGRFQLTLVGVMWTFLLSIFVMPFYAKLILHTIIQVPIEMLLKSLILYIITPLIIGQLTKYIILHWKGTDALISLKKPLIGISLIGMYWMIVVVFGINAKVIVERPELILIGAITMNIYFLLRAAIAYFIGKALDFPFEQNISLVYSTGSNMTLATAMAIGTFGPLAAVGTALGGPFSDMLLMIFFVKLFTLIRKKYIHNERKSITGG	failed
MKGRSGDVNINTNAISTPARVLIYSTAAVLLTIGMKAISSILMPIFFSIFSYLIFAPLVRWLMRKRVPGKISVVLVILVFIFVFVGTTLLFANSLLQLSGRIPNYENQLTSILNSISIYLPEAGVSVESVLRDIAAFAFNVSGDIISGALNAGSTIALIVITTTFLLLDSAGAPVKMQKEGENQPVHISQYTELSRTVINYMLLRTETNLLGGIGTAILLLAGGIDFAVLWGLLFFLFGYIPYLGFYLAAIPPMLLGLFEYGLIGAVGVLVGITIINALVENVIFPSLAGKGLKLSPTLVFLSLFYWSFVLGAAGALIAVPLTIVVKIILESSEETRMIAKLMESSGTRDLDEKSTEENISE	failed
MKGRWVKYLLMGTVVAMLAACSSKPTDRGQQYKDGKFTQPFSLVNQPDAVGAPINAGDFAEQINHIRNSSPRLYGNQSNVYNAVQEWLRAGGDTRNMRQFGIDAWQMEGADNYGNVQFTGYYTPVIQARHTRQGEFQYPIYRMPPKRGRLPSRAEIYAGALSDKYILAYSNSLMDNFIMDVQGSGYIDFGDGSPLNFFSYAGKNGHAYRSIGKVLIDRGEVKKEDMSMQAIRHWGETHSEAEVRELLEQNPSFVFFKPQSFAPVKGASAVPLVGRASVASDRSIIPPGTTLLAEVPLLDNNGKFNGQYELRLMVALDVGGAIKGQHFDIYQGIGPEAGHRAGWYNHYGRVWVLKTAPGAGNVFSG	not failed
MKGWKRNLYILVVCQFLVVSAMTMIIPFLPLYLQELGVTDPSEVSLWAGIIFAANFLTAFLFSPLWSRLADRYGRKMMILRSGFGMALIIGLTGFAQGPLSLLCLRLLNGVISGFIPASIGLVATNTPKEKAGYALGFLQAGAVSGGICGPLIGGIMAQAFGYRMIFFLTGLCIFIAALVVLLFVNEQFTPNPKEEKTNTWGEFKKITAIRPIFSLYVVVFLIQFAVMGVNPLISLFVEELVSGVNVALFAGLAISATGFANMLSSMQLGKLSDKAGAHHVLFFCLLGTVIFMIPQAFVQQLWQLIVLRFFVGLSLGGLLPAANALVRMHAPKGMESRTYGFSTSALYLGNMVGPTVGGAVVATVGIRGLFLISAFTLLLTVWIVKGKVMPASDKQFRYEQNERKIASS	failed
MKHAKQIAEHATIQSFLNCYLRETGSGEWITEDKRIEDIFYHLFQRDTCSTYLCCRLSAQNITLYGEVIYKSPTDRHLFGEQFYYQMGDSNSVMKADYVTVITFLIKEMSINYGEGTNPAELMLRVIRSCQNIEEFTKERKEDTSALYGFHTSFIEAEQSLLFGHLTHPTPKSRQGILEWKSAMYSPELKGECQLHYFRAHKSIVNEKSLLLDSTTVILKEELRNDEMVSKEFISKYCNEDEYSLLPIHPLQAEWLLHQPYVQDWIEQGVLEYIGPTGKCYMATSSLRTLYHPDAKYMLKFSFPVKVTNSMRINKLKELESGLEGKAMLNTAIGEVLEKFPGFDFICDPAFITLNYGTQESGFEVIIRENPFYSEHADDATLIAGLVQDAIPGERTRLSNIIHRLADLESRSCEEVSLEWFRRYMNISLKPMVWMYLQYGVALEAHQQNSVVQLKDGYPVKYYFRDNQGFYFCNSMKEMLNNELAGIGERTGNLYDDYIVDERFRYYLIFNHMFGLINGFGTAGLIREEILLTELRTVLESFLPYNREPSTFLRELLEEDKLACKANLLTRFFDVDELSNPLEQAIYVQVQNPLVREVAVRS	failed
MKHAQKYRYFSLLMGLVLLLSACQIGATTKDDNQAATKEATVELNRTTTPTLFFHGYAGTKNSFGSLLHRLEKQGATTQELVLLVKPDGTVVKERGALSGKATNPSVQVLFEDNKNNEWNQTEWIKNTLLYLQKNYQVNKANIVGHSMGGVSGLRYLGTYGQDTSLPKIEKFVSIGAPFNDFIDTSQQQTIETELENGPTEKSSRYLDYQEMINVVPEKLPILLIGGQLSPTDLSDGTVPLSSALAVNALLRQRGTQVTSQIIKGENAQHSQLHENPEVDQLLIEFLWPSKK	failed
MKHLNIYIMLLGFSIFTGATFNLAKYTVGYFSPSSSAAWRFGLAAAVMLIILIFTEGIKKSQLRKNAVSYIVLGIIGIFGFNALFFVGLKYTSPVNGALIMGLNPLLTAILARIILKDNMTKKQVLGIFFAFIGVLLVITQGSIETIKTLSISGGDLIIFTGNVCWALYGVLGRRFVKDGTPLSTTTYTMVIGAVSLIVVSLFTSKPVSLSNIPIGVWGAIAFMAFFTSVLGYLWWNQGIKEIGASKTSLFFNLVPVVTMIISFAVGTPIKVFQVIGAVLVILGVLTASGVIRIPKYNTKEQSAI	failed
